# Source: patent US20240150445A1 (DUKE UNIVERSITY, published 2024)
# B1: DH270.IA4 (antibody, V domains shown)
# VH: QVQLVQSGAEVKKPGASVKVSCKASGYTFTDYYIHWVRQAPGQGLEWMGWINPNTGRTNYAQKFQGRVTMTRDTSISTAYMELSRLRSDDTAVYYCARGGWIGLYYDSSGYPNFDYWGQGTLVTVSS
# VL: QSALTQPASVSGSPGQSITISCTGTSYDVGSYNLVSWYQQHPGKAPKLMIYEVSKRPSGVSNRFSGSKSGNTASLTISGLQAEDEADYYCCSYAGSSTVIFGGGTKLTVL
# notes: Inferred intermediate, recombinant IgG; also called DH270.I4
# Target: Env 10.17 gp120 (HIV-1)
# Test: direct-binding ELISA (OD450) on CH848.d0949.10.17 gp120 [panel A]
binder,measurement,value
B1,EC50 (read off the curve),~2 mg/L
